Reference: patent US20150056222A1 (Regeneron, published 2015)
Substitutions are numbered along the chain they refer to. Where two headings read alike, the source gives them in different places.

Assays:
[1] = molecular target: T1, human prolactin receptor (PRLR), cell surface-expressed (human, UniProt P16471 25-622); assay: cell-based or functional assay
T1 sequence: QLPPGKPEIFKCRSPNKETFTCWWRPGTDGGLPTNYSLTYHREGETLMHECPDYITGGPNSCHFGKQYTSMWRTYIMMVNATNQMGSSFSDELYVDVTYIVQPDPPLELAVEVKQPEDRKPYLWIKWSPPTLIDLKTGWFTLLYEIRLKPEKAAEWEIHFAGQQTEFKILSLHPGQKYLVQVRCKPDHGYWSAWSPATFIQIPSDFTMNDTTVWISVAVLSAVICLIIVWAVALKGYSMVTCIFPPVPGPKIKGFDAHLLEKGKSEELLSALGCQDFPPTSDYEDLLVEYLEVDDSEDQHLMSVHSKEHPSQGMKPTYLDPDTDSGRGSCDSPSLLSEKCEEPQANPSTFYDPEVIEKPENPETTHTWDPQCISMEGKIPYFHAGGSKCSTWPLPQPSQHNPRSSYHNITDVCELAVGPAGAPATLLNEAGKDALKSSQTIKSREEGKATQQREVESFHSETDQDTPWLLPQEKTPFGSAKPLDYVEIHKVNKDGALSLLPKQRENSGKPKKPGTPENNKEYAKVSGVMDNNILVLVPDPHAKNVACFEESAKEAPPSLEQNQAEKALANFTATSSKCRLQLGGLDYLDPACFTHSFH

[2] = molecular target: T2, monkey (macaca fascicularis) PRLR on HEK293 cells (macaca fascicularis, UniProt A0A2K5WXK1 25-619); assay: FACS, HEK293/mfPRLR cells; note: test concentration or dose not given here
T2 construct: also called mfPRLR; HEK293/mfPRLR
T2 sequence: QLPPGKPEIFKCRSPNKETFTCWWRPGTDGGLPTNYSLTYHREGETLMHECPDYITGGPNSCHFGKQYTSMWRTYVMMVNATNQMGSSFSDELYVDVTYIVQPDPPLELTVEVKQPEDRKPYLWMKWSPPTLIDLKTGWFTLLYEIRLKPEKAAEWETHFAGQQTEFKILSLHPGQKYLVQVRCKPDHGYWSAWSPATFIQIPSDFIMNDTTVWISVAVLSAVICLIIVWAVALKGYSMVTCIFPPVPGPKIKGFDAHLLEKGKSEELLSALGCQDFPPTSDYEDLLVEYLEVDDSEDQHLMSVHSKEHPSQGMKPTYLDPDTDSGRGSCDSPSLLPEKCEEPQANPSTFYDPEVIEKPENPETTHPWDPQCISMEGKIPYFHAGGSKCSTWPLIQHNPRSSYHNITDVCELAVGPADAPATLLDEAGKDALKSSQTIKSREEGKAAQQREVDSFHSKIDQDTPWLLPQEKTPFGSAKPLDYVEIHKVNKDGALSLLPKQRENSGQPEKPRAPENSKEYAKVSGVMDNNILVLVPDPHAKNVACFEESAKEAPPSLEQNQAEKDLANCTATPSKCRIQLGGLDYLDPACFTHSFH

[3] = molecular target: T3, human prolactin receptor (PRLR) on cells (human, UniProt P16471 25-622); assay: cell-based or functional assay
T3 sequence: T1 sequence

[4] = molecular target: T4, mouse PRLR on HEK293 cells (mouse, UniProt Q08501 20-608); assay: FACS, HEK293/mPRLR cells; note: test concentration or dose not given here
T4 construct: whole, on cells; also called mPRLR; HEK293/mPRLR
T4 sequence (looked up): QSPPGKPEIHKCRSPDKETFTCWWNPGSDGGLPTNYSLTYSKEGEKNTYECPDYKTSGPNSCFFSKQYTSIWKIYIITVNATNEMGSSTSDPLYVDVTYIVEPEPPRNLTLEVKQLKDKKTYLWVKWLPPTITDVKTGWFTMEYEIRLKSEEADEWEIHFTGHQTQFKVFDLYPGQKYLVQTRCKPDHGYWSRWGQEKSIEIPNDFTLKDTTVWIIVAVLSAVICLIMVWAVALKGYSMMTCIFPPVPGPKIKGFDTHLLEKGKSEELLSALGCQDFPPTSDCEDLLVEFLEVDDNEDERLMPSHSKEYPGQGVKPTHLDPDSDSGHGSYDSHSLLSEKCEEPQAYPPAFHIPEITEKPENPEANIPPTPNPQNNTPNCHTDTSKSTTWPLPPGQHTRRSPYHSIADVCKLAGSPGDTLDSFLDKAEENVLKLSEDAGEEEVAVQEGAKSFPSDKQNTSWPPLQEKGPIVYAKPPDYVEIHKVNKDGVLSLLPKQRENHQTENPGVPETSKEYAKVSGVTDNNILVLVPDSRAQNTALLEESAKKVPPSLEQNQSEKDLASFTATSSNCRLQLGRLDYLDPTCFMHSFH

[5] = molecular target: T3, human prolactin receptor (PRLR) on cells; assay: FACS, HEK293/hPRLR cells; note: test concentration or dose not given here
[6] = molecular target: T3, human prolactin receptor (PRLR) on cells; assay: FACS, T47D cells (native PRLR); note: test concentration or dose not given here
[7] = molecular target: T5, hPRLR.mmh (soluble monomeric human PRLR) (human); assay: SPR, 37C, mAb capture
T5 construct: soluble monomeric construct
T5 chain: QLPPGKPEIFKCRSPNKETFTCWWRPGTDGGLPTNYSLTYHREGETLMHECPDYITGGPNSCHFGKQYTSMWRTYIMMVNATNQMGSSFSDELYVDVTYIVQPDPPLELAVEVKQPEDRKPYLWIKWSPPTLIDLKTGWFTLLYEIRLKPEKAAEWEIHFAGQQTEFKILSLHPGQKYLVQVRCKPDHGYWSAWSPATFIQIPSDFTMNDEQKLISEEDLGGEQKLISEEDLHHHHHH
Description: (§1) Measurements were conducted on a T200 Biacore instrument. Kinetic association (kₐ) and dissociation (kd) rate constants were determined by processing and fitting the data to a 1:1 binding model using Scrubber 2.0 curve fitting software. Binding dissociation equilibrium constants (KD) and dissociative half-lives (t_{1/2}) were calculated from the kinetic rate constants as: KD (M)=kd/kₐ; and […].

[8] = molecular target: T6, hPRLR.mFc (soluble dimeric human PRLR) (human); assay: SPR, 37C, mAb capture
T6 construct: dimeric construct
T6 chain: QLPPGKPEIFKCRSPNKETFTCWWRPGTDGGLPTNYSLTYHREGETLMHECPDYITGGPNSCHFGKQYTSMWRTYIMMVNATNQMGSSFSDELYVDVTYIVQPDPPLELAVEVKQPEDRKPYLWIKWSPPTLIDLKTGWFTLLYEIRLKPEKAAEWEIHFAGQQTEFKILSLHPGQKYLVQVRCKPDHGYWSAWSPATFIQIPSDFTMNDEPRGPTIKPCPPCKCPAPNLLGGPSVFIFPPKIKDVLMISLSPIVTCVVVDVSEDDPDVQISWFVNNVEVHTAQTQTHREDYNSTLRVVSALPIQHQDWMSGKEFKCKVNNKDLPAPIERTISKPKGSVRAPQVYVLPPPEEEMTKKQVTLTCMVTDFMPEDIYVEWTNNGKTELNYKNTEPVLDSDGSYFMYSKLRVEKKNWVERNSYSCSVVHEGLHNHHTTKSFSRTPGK
Description: as §1

[9] = molecular target: T7, mfPRLR.mmh (soluble monomeric macaca fascicularis PRLR) (macaca fascicularis); assay: SPR, 37C, mAb capture
T7 construct: soluble monomeric construct; also called macaca fascicularis (mf) PRLR.mmh
T7 chain: T5 chain with I76V, A110T, I125M, I158T, T207I
Description: as §1

IL-6R = molecular target: T8, IL-6R (human, UniProt P08887 20-468); assay: FACS on KG-1 cells (endogenous IL-6R), PE anti-human secondary, MFI above isotype control
T8 construct: whole, on cells
T8 sequence (looked up): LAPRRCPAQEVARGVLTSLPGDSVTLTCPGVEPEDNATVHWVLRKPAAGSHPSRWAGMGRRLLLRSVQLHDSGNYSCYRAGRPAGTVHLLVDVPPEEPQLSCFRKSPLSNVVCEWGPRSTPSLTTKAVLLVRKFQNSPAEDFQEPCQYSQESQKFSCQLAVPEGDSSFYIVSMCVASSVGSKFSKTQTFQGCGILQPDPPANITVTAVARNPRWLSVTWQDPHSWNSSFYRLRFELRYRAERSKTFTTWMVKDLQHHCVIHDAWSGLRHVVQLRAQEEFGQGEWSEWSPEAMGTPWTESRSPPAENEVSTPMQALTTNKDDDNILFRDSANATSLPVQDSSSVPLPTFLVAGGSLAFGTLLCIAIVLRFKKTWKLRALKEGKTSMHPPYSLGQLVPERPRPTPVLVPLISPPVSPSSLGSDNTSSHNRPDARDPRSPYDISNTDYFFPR

[10] = molecular target: T1, human prolactin receptor (PRLR), cell …; assay: cell-based or functional assay; remark: listed apart in the source
[11] = molecular target: T1, human prolactin receptor (PRLR), cell …; assay: cell-based or functional assay; remark: listed apart in the source
[12] = molecular target: T1, human prolactin receptor (PRLR), cell …; assay: cell-based or functional assay; remark: listed apart in the source
[13] = molecular target: T1, human prolactin receptor (PRLR), cell …; assay: cell-based or functional assay; remark: listed apart in the source

B1: H1H6782P-SMCC-DM1 (antibody, human IgG1, V domains shown)
VH: EVQLVESGGGLVQPGRSLRLSCAASGFTFDDYAMHWVRQAPGKGLEWVSGIIWNSGHIGYGDSVKGRFTISRDNAKKSLYLQMNSLRAEDTALYYCARDSGRYQSYFDYWGQGTLVTVSS
VL: DIQMTQSPSTLSASVGDRVTITCRASHIISSWLAWYQQKPGKAPKVLIFKASSLESGVPSRFSGSGSGTEFTLTISSLQPDDFATYYCQQYNTYSRTFGQGTKVEIK
modifications: DM1 conjugated through an SMCC linker; attachment residues not stated
- IC50, cell viability, T47D cells [1]: 1 nM

B2: H1H6960N (antibody, human IgG1, V domains shown)
VH: EVQLVESGGGLVKPGGSLRLSCAASGITFSSYSMNWVRQAPGKGLEWVSSISTRSSLIHYADSVKGRFTISRDNAKNSLYLQMNSLRDEDTAVYYCARWDAAAAFDYWGQGTLVIVSS
VL: DIQLTQSPSFLSASVGDRVTITCWASQGISSYLAWYQQKPGKAPKLLIYVASTLQSGVPSRFSGSGSGTEFTLTISSLQPEDFATYFCQQLNSYPLTFGGGTKVEIK
notes: also called H2M6960N
- FACS Cell Binding (Fold Above Background) [2]: 23 fold above background
- % Internalization relative to Control I (alexa488 intensity in intracellular vesicles at 37 C, T47D cells) [3]: 120%
- FACS Cell Binding (Fold Above Background) [4]: 1 fold above background
- FACS Cell Binding (Fold Above Background) [5]: 29 fold above background
- FACS Cell Binding (Fold Above Background) [6]: 33 fold above background
- T½ [7]: 5.8 min
- T½ [8]: 78.7 min
- T½ [9]: 9 min

B3: VV6A9-5 (antibody, V domains shown)
VH: EVQLVESGGGLVQPGRSLRLSCAASGFTFDDYALHWVRQAPGKGLEWVSGVSWNGGRIGYADSVKGRFTISRDNAKNSLFLQMNSLRVEDTALYYCAKGRDAFDIWGQGTLVTVSS
VL: DIQMTQSPSSVSASVGDRVTITCRASQGISSWLAWYQQKPGKAPKLLIYAASSLQSGVPSRFSGSGSGTDFTLTISSLQPEDFATYYCQHAYSFPYTFGQGTKLEIK
- MFI fold over background (IL-6R): 7 fold over background

B4: H1H6953N-SMCC-DM1 (antibody, human IgG1, V domains shown)
VH: EVQLLESGGGLVQPGGTLRLSCAASGFTFSAYAMSWVRQAPGKGLEWVSSINVRAGDTYYADSVKGRFTISRDNSKNTLFLLMNSLRAEDTAAYYCAKARYSSNWGFDFWGQGTLVTVSS
VL: DIVMTQSPDSLTVSLGARTTINCQSSQTILHSSNNHNYLAWYQQKPGLPPKLLIYWSSTRESGVPDRFSGSGSGTDFTLTISSLQAEDVAIYYCQQYSNTPYTFGQGTKLEIN
modifications: DM1 conjugated through an SMCC linker; attachment residues not stated
- IC50, cell viability, MCF7/PRLR cells [10]: 0.33 nM
- IC50, cell viability, MCF/PRLR + ErbB2 cells [10]: 0.33 nM
- IC50, cell viability, NCI-N87/PRLR cells [10]: 2.9 nM
- IC50, cell viability, MCF7 cells [11]: 82 nM
- IC50, cell viability, T47D cells [11]: 1.3 nM
- IC50, cell viability, T47D/ErbB2 cells [11]: 2.4 nM
- IC50, cell viability, 293/PRLR cells [12]: 0.43 nM
- IC50, cell viability, PC3/PRLR cells [13]: 0.68 nM
